According to the supplement of paper PMC6757056:
± gives the standard deviation of the averaged measurements.

B1: library; a variant is named by its letters at N, in order (parent)
chain: GCUGUCACCGGUGUAUUACCCUAGUGGUCGACCGGUCUGAUGAGUCUNNNNNNAGACGAAACAGC

Key:
hypoxanthine [1] = variants of: B1; assay: FACS-Seq fitted mean relative fluorescence mCherry/BFP without ligand (log10 relative fluorescence); ligand: hypoxanthine (xanthine aptamer); higher = higher reporter protein expression; conditions: HEK293T, ligand present: no
How it was run: (§1)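 To measure fluorescence, a normal distribution was fitted to read counts across sorted bins. The reporter libraries were HEK293T cells transduced by lentivirus with mCherry under ribozyme-switch control and an EF1α-BFP marker, enriched and then kept with or without ligand for 48 h. Sorting used 6 mCherry/BFP bins, and bin genomic DNA was PCR-amplified and sequenced on MiSeq. Fitted means of log10(mCherry/BFP) were scaled to five spiked-in control ribozymes.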

hypoxanthine [2] = variants of: B1; assay: normalized RNA/DNA level with ligand (relative to sTRSVctl = 100) (log10 (% of sTRSVctl)); ligand: hypoxanthine (xanthine aptamer); higher = less ribozyme self-cleavage, higher mRNA level; conditions: ligand concentration (+) RNA-Seq: 5 mM, HEK293T, reporter: mCherry (pCS4076), ligand present: yes
How it was run: (§2)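 Total RNA, extracted with EDTA 72 h after HEK293T cells were transfected with 4 µg per 6-well well of reporter-linked ribozyme switch library plasmids, was reverse-transcribed, amplified, barcoded and sequenced. Ligand, if used, was added 1 h before transfection. RNA level was derived from RNA reads divided by DNA reads and normalized to a spiked-in non-cleaving sequence or to the top sequences. This was multiplied by 100 and log10-transformed, with the top set of 25 sequences and a ≥100 DNA read minimum.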

hypoxanthine [3] = variants of: B1; assay: normalized RNA/DNA level without ligand (relative to sTRSVctl = 100) (log10 (% of sTRSVctl)); ligand: hypoxanthine (xanthine aptamer); higher = less ribozyme self-cleavage, higher mRNA level; conditions: HEK293T, reporter: mCherry (pCS4076), ligand present: no
How it was run: as §2

hypoxanthine [4] = variants of: B1; assay: FACS-Seq fitted mean relative fluorescence mCherry/BFP with ligand (log10 relative fluorescence); ligand: hypoxanthine (xanthine aptamer); ligand concentration (+) FACS-Seq: 5 mM; higher = higher reporter protein expression; conditions: HEK293T, ligand present: yes
How it was run: as §1

Row | Variant | FACS-Seq fitted mean (log10) (hypoxanthine [1]) | normalized RNA/DNA level with ligand (log10) (hypoxanthine [2]) | normalized RNA/DNA level without ligand (log10) (hypoxanthine [3]) | FACS-Seq fitted mean (log10) (hypoxanthine [4])
1 | CGAGGU | 0.491 ± 0.077 | 1.96 ± 0.027 | 1.86 ± 0.019 | 0.625 ± 0.12
2 | CGAGGG | -0.0981 ± 0.041 | 1.8 ± 0.077 | 1.3 ± 0.047 | 0.0226 ± 0.19
3 | UGACAC | 0.161 ± 0.17 | 1.93 ± 0.03 | 1.84 ± 0.064 | 0.132 ± 0.059
4 | UGACAG | 0.5894 ± 0.0055 | 1.93 ± 0.043 | 1.66 ± 0.064 | 0.556 ± 0.022
5 | AGCACG | 0.385 ± 0.023 | 1.87 ± 0.055 | 1.44 ± 0.085 | 0.609 ± 0.062
6 | AGCACA | -0.251 ± 0.011 | 1.92 ± 0.044 | 1.787 ± 0.0038 | -0.513 ± 0.043
7 | AGCACC | -0.563 ± 0.05 | 1.98 ± 0.063 | 1.844 ± 0.0071 | -0.00735 ± 0.0039
8 | GGACGG | 0.346 ± 0.049 | 1.81 ± 0.035 | 1.42 ± 0.016 | 0.584 ± 0.054
9 | GGACGA | 0.478 ± 0.053 | 1.904 ± 0.015 | 1.64 ± 0.031 | 0.693 ± 0.025
10 | GGAAUG | -0.159 ± 0.068 | 1.842 ± 0.0069 | 1.34 ± 0.03 | -0.507 ± 0.2
11 | GGAAUU | 0.904 ± 0.078 | 1.955 ± 0.011 | 1.89 ± 0.045 | 0.815 ± 0.039
12 | GGAAUA | 0.68 ± 0.044 | 1.9527 ± 0.00026 | 1.78 ± 0.028 | 0.588 ± 0.045
13 | UGCCUC | 0.735 ± 0.008 | 2 ± 0.064 | 2.01 ± 0.023 | 0.659 ± 0.051
14 | UGCCUA | 0.664 ± 0.022 | 1.94 ± 0.039 | 1.929 ± 0.0053 | 0.57 ± 0.049
15 | UGAACU | -0.346 ± 0.014 | 1.913 ± 0.013 | 1.89 ± 0.0097 | 0.000122 ± 0.018
16 | UGAGAA | 0.552 ± 0.021 | 1.86 ± 0.019 | 1.74 ± 0.018 | 0.638 ± 0.083
17 | UGAGAU | 0.648 ± 0.051 | 1.887 ± 0.017 | 1.713 ± 0.0063 | 0.743 ± 0.033
18 | UGAGAG | 0.372 ± 0.012 | 1.87 ± 0.03 | 1.67 ± 0.04 | 0.364 ± 0.023

Row | Variant | FACS-Seq fitted mean (log10) (hypoxanthine [1]) | normalized RNA/DNA level with ligand (log10) (hypoxanthine [2]) | normalized RNA/DNA level without ligand (log10) (hypoxanthine [3]) | FACS-Seq fitted mean (log10) (hypoxanthine [4])
19 | GGACCG | 0.219 ± 0.056 | 1.97 ± 0.03 | 1.79 ± 0.0033 | 0.447 ± 0.027
20 | UGCAAA | 0.613 ± 0.029 | 1.879 ± 0.0083 | 1.787 ± 0.017 | 0.635 ± 0.019
21 | UGCAAG | 0.123 ± 0.078 | 1.853 ± 0.0049 | 1.72 ± 0.021 | 0.179 ± 0.031
22 | GGCAUG | 0.213 ± 0.11 | 1.88 ± 0.058 | 1.45 ± 0.042 | 0.621 ± 0.098
23 | AGACGU | 0.722 ± 0.019 | 1.9 ± 0.043 | 1.59 ± 0.03 | 0.696 ± 0.067
24 | AGACGG | 0.689 ± 0.072 | 1.81 ± 0.044 | 1.3085 ± 0.0012 | 0.834 ± 0.073
25 | AGACGA | 0.525 ± 0.066 | 1.95 ± 0.049 | 1.62 ± 0.025 | 0.546 ± 0.049
26 | AGACAA | 0.177 ± 0.019 | 1.89 ± 0.049 | 1.74 ± 0.053 | 0.0293 ± 0.022
27 | AGACAU | 0.502 ± 0.023 | 1.907 ± 0.0038 | 1.755 ± 0.0087 | 0.538 ± 0.036
28 | AGACAG | 0.418 ± 0.037 | 1.82 ± 0.053 | 1.391 ± 0.011 | 0.565 ± 0.052
29 | AGAAUG | -0.0981 ± 0.019 | 1.86 ± 0.034 | 1.42 ± 0.058 | -0.0321 ± 0.076
30 | UGAGGA | 0.402 ± 0.033 | 1.885 ± 0.015 | 1.5 ± 0.056 | 0.633 ± 0.061
31 | UGCAGU | -0.0358 ± 0.0051 | 1.906 ± 0.016 | 1.434 ± 0.0054 | 0.345 ± 0.15
32 | UGCAGG | 0.297 ± 0.033 | 1.8726 ± 0.0012 | 1.39 ± 0.073 | 0.49 ± 0.056
33 | UGCAGA | 0.169 ± 0.0021 | 1.84 ± 0.032 | 1.43 ± 0.021 | 0.4015 ± 0.00097
34 | AGAUGG | -0.23 ± 0.04 | 1.84 ± 0.035 | 1.36 ± 0.019 | 0.0811 ± 0.0062
35 | AGAUGA | 0.409 ± 0.022 | 1.93 ± 0.05 | 1.65 ± 0.034 | 0.591 ± 0.025
